Laboratory results from patent publication US20230065377A1.
“And” between values parts separate entries of the source, which are not always exact repeats. Identical values can stand only once. Like-named read-outs stand apart in the source and are kept apart here.

What was measured:
[1] = molecular target: Eastern equine encephalitis virus (EEEV) strain FL93-939 (Eastern equine encephalitis virus, strain FL93-939)
[2] = molecular target: Eastern equine encephalitis virus (EEEV) strain FL93-939 (Eastern equine encephalitis virus, strain FL93-939); remark: listed apart in the source
[3] = molecular target: Recombinant EEEV E2 glycoprotein (E3E2) (strain V105; IBT Bioservices) (Eastern equine encephalitis virus, strain V105); test: ELISA, mAb on coated recombinant E2
[4] = molecular target: Eastern equine encephalitis virus (EEEV) strain FL93-939 (Eastern equine encephalitis virus, strain FL93-939); remark: listed apart in the source

Binder	IC50, neutralization, PRNT [1]	IC50, neutralization, CPE assay [2]	EC50 [3]	IC50, neutralization, PRNT [4]
EEEV-33 (antibody, V domains shown) VH: QVTLKESGPALVKPTQTLTLTCTFSGFSLSTSGMRVSWIRQPPGKALEWLARIDWDDDKFYSTSLKTRLTISKDTSKNQVVLRMTNMDPVDTATYYCARILPGYCSGGSCYYNYHFDYWGQGTLVTVSS VL: SYVLTQPPSVSVAPGQTARITCGGNNIGSKSVHWYQQKPGQAPVLVVYHDSDRPSGIPERFSGSNSGNTATLTISRVEAGDEADYYCQVWDSSSDPYVFGTGTKVTVL	< 0.037 nM	< 0.01 µg/mL	< 4 nM and < 1.2 µg/mL	–
EEEV-147 (antibody, V domains shown) VH: QVQLVQSGAEVKKPGASVKVSCKASGYTFTNYGITWVRQAPGQGLEWMGWISAYNGNTDYAQKLQGRVTMTTDTSTSTAYMELGSLRSDDTAVYYCARELWFGDLGYWGQGTLVTVSS VL: EIVLTQSPGTLSLSPGERATLSCRASQSVSRSSSSYLAWYQQKPGQAPRLLIYGASSRATGIPDRFSGSGSGTDFTLTISRLEPEDVAVYYCQQYGSSPQTFGQGTKLEIK	–	< 1 µg/mL	–	–
EEEV-143 (antibody, V domains shown) VH: QVQLVESGGGVVQPGRSLRLSCAASGFTFSNYGIHWVRQAPGKGLEWVAVISYDGRHKYIADPVKGRFTISRDNSKNMLYLQMNSLRTEDTAVYYCAKDTSGWYEFFDSWGQGIPVTVSS VL: EIVMTQSPATLSVSPGERATLSCRASQSVATNVAWYQQKPGQAPRLLIYGASTRATGIPARFSGSGSGTEFTLTISSLQSEDFAVYYCQQCNDWLTFGQGTKVEIK	–	–	–	0.315 nM
